Source: PMC1142404 (Nucleic Acids Research, 2005)
Blank lines part the entries; values can stand above or below the binder they belong to.

Experiments:
[1] = target: T1, aCBF5 protein (archaeal CBF5 RNA:Ψ-synthase), Pyrococcus abyssi, cleaved from GST (Pyrococcus abyssi, UniProt Q9V1A5 1-334); assay: pull-down
T1 sequence (looked up): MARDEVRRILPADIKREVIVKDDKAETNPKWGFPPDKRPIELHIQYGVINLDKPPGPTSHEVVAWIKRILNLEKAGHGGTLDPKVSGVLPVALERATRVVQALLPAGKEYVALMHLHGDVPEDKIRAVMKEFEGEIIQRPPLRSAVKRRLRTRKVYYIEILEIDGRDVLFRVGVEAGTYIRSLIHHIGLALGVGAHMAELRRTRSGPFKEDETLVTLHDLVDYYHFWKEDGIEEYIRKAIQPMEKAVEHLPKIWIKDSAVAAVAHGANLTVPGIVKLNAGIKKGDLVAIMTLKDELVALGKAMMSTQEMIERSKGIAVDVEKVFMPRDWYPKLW

[2] = target: T1, aCBF5 protein (archaeal CBF5 …); assay: native gel or EMSA
aCBF5 = target: T2, aCBF5 (Pyrococcus abyssi GE5, UniProt Q9V1A5 1-334); assay: EMSA
T2 sequence: T1 sequence (looked up)

aCBF5;aNOP10 = target: T3, aCBF5;aNOP10 (Pyrococcus abyssi GE5;Pyrococcus abyssi …, UniProt Q9V1A5;Q9V0E3 1-334;1-60, |); assay: EMSA
T3 sequence 1: T1 sequence (looked up)
T3 sequence 2: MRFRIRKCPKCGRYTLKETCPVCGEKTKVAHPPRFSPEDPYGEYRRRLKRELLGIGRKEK

binding result [1]: binds
B1: GST-aNOP10 fusion protein (natural protein, Pyrococcus abyssi, UniProt Q9V0E3 1-60, looked up)
chain: T3 sequence 2

binding result [2]: binds
B2: aNOP10 protein, Pyrococcus abyssi, cleaved from GST (natural protein, UniProt Q9V0E3 1-60, looked up)
chain: T3 sequence 2

B3: Pab91mtGA (structured_RNA)
RNA: GGGUAAUGCCCCUCCCCUCUCACACCUCCGGGAUCAGUCCCCGGAGGGCGGUCGGGGAGGGGACACCU
binding result (aCBF5): binds
binding result (aCBF5;aNOP10): binds
